# Measurements taken from patent US20150126710A1 (APOGENIX, published 2015).
# B1: LIGHT-ASPD (ligand)
# chain: EVNPAAHLTGANSSLTGSGGPLLWETQLGLAFLRGLSYHDGALVVTKAGYYYIYSKVQLGGVGCPLGLASTITHGLYKRTPRYPEELELLVSQQSPCGRATSSSRVWWDSSFLGGVVHLEAGEEVVVRVLDERLVRLRDGTRSYFGAFMVGSSGSSGSSGSGLPDVASLRQQVEALQGQVQHLQAAFSQYKKVELFPNGQSVGEKIFKTAGFVKPFTEAQLLCTQAGGQLASPRSAAENAALQQLVVAKNEAAFLSMTDSKTEGKFTYPTGESLVYSNWAPGEPNDDGGSEDCVEIFTNGKWNDRACGEKRLVVCEFGGSPSSSSSSAWSHPQFEK
# notes: Human LIGHT-RBD (Glu91-Val240), A-linker, neck + CRD of human SP-D, linker element and Strep-tag II; Signal peptide 1-20 left out; Trimer by SEC, glycosylated; also called Sp-LIGHT-ASPD
# B2: TRAILR2mut-ASPD (ligand)
# chain: QRVAAHITGTRGRSNTLSSPNSKNEKALGRKINSWESSRSGHSFLSNLHLRNGELVIHEKGFYYIYSQTQFKFREEIKENTKNDKQMVQYIYKYTSYPDPILLMKSARNSCWSKDAEYGLYSIYQGGIFELKENDRIFVSVTNERLLQMDHEASFFGAFLVGSSGSSGSSGSGLPDVASLRQQVEALQGQVQHLQAAFSQYKKVELFPNGQSVGEKIFKTAGFVKPFTEAQLLCTQAGGQLASPRSAAENAALQQLVVAKNEAAFLSMTDSKTEGKFTYPTGESLVYSNWAPGEPNDDGGSEDCVEIFTNGKWNDRACGEKRLVVCEFGGSPSSSSSSAWSHPQFEK
# notes: TRAIL-Receptor 2 selective mutein of the human TRAIL-RBD, A-linker, neck + CRD of human SP-D, linker element and Strep-tag II; Signal peptide 1-20 left out; Homotrimer by SEC; also called Sp-TRAILR2mut-ASPD
# B3: TRAILR2mut-A-CCSPD (ligand)
# chain: QRVAAHITGTRGRSNTLSSPNSKNEKALGRKINSWESSRSGHSFLSNLHLRNGELVIHEKGFYYIYSQTQFKFREEIKENTKNDKQMVQYIYKYTSYPDPILLMKSARNSCWSKDAEYGLYSIYQGGIFELKENDRIFVSVTNERLLQMDHEASFFGAFLVGSSGSSGSSGSGLPDVASLRQQVEALQGQVQHLQAAFSQYKKVELFPNGPSSSSSSAWSHPQFEK
# notes: Used as HEK293 supernatant
# B4: TRAILR2mut-D-SPD (ligand)
# chain: QRVAAHITGTRGRSNTLSSPNSKNEKALGRKINSWESSRSGHSFLSNLHLRNGELVIHEKGFYYIYSQTQFKFREEIKENTKNDKQMVQYIYKYTSYPDPILLMKSARNSCWSKDAEYGLYSIYQGGIFELKENDRIFVSVTNERLLQMDHEASFFGAFLVGSGLPDVASLRQQVEALQGQVQHLQAAFSQYKKVELFPNGQSVGEKIFKTAGFVKPFTEAQLLCTQAGGQLASPRSAAENAALQQLVVAKNEAAFLSMTDSKTEGKFTYPTGESLVYSNWAPGEPNDDGGSEDCVEIFTNGKWNDRACGEKRLVVCEFGGSPSSSSSSAWSHPQFEK
# notes: Used as HEK293 supernatant
# B5: TRAILR2mut-D-CCSPD (ligand)
# chain: QRVAAHITGTRGRSNTLSSPNSKNEKALGRKINSWESSRSGHSFLSNLHLRNGELVIHEKGFYYIYSQTQFKFREEIKENTKNDKQMVQYIYKYTSYPDPILLMKSARNSCWSKDAEYGLYSIYQGGIFELKENDRIFVSVTNERLLQMDHEASFFGAFLVGSGLPDVASLRQQVEALQGQVQHLQAAFSQYKKVELFPNGPSSSSSSAWSHPQFEK
# notes: Used as HEK293 supernatant
# How the values were obtained:
# [1] = molecular target: T1, TRAIL-Receptor 1-Fc (UniProt O00220 109-239, limits assumed); assay: Streptactin-ELISA, LIGHT-ASPD immobilized via Strep-tag II
# T1 construct: Bought from R&D Systems; also called TRAILR1; not shown: Fc part of the bought fusion protein
# T1 sequence (O00220 109-239 limits assumed): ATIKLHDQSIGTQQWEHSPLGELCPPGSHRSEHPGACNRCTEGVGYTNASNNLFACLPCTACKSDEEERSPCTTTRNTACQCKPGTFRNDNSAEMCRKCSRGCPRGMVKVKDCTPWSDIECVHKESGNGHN
# Experimental: (§1) To determine the binding of receptors to constructed ligands, streptactin-coated 96-well microplates were used. Therefore, supernatants from transiently transfected HEK293 cells, mouse sera or purified proteins were immobilized on streptactin-plates (IBA GmbH) for 1-3 hours in PBS. Samples were diluted in ELISA binding/blocking buffer (PBS, 0.1% Tween-20, 20% SuperBlock T20-PBS (Pierce)). Plates were washed with PBS+0.1% Tween-20 and incubated with mouse-anti-TRAIL antibody (Pharmingen, clone RIK-2), TRAIL-Receptor 1-Fc (R&D Systems), TRAIL-Receptor 2-Fc (R&D Systems), TACI-Fc (R&D Systems) or HVEM-Fc (R&D Systems) for one hour at room temperature. Plates were again washed and Fc-proteins were detected with anti-human- or anti-mouse-Fc-specific peroxidase-conjugated antibodies (Sigma). Colour reaction was done by addition of 100 μl per well of TMB substrate (Kem-En-Tec Diagnostics) and the absorbance at 450 nm and 630 nm was determined with an ELISA reader after addition of 25 μl of 25% H₂SO₄ as stop-solution. Values were calculated as 450 nm-630 nm with MS Excel.
# Varying concentrations (0-10 microgram/ml) of affinity and SEC purified, trimeric LIGHT-ASPD were used for immobilized via the Strep-tag II on Streptactin-coated microplates. LIGHT-ASPD was then detected in a ELISA set-up using 100 ng/ml of Fc-fusion proteins of the receptors HVEM and TRAIL-Receptor 1, respectively. […]
# [2] = molecular target: T1, TRAIL-Receptor 1-Fc; assay: Streptactin-ELISA, supernatant immobilized, constant concentration of TRAIL-Receptor 1-Fc (FIG. 14A)
# Experimental: as §1
# The selectivity of TRAIL-Receptor 1 or TRAIL-Receptor 2 towards fusion proteins of SPD/ccSPD and TRAIL, TRAILR1 mut and TRAILR2mut was shown by Streptactin-ELISA. Therefore, TRAIL-SPD-fusion proteins in supernatants from transiently transfected HEK293 cells were immobilized on Streptactin coated microplates. Cell supernatant from untransfected cells served as negative control. Specifically bound proteins were detected with constant (A, B) or varying (C, D) concentrations of either TRAIL-Receptor 1-Fc or TRAIL-Receptor 2-Fc. As shown in (A), the ligand TRAILR1 mut fused to SPD variants is deteced by TRAIL-Receptor 1, whereas the ligand TRAILR2mut is not. As shown in (B), the ligand TRAILR2mut is preferentially detected by TRAIL-Receptor 2, whereas TRAILR1 mut- and TRAIL wild-type constructs are equally well detected. As shown in C, TRAIL-Receptor 1-Fc bound to TRAIL-R1mut-ASPD and TRAIL-ASPD equally well over the whole receptor titration range, whereas TRAIL-R2mut-ASPD is not detected. As shown in D, TRAIL-Receptor 2-Fc bound to TRAIL-R2mut-ASPD and TRAIL-ASPD equally well over the receptor titration range analyzed, whereas the signal for TRAIL-R1mut-ASPD decreased rapidely with decreasing concentrations of receptor.
Binder,binding result [1],binding result [2]
B1,no binding,–
B2,–,no binding
B3,–,no binding
B4,–,no binding
B5,–,no binding
